Test results: the supplement of paper PMC10126150
± gives the standard deviation of the averaged measurements.

System: ATP
Experiment: switch fluorescence ratio, 500 uM ATP over buffer (Cy3 cluster intensity, sum of 5 cycles each) (fold (ratio)); higher = stronger signal-on switching upon ATP binding; sequences stand for … in TCGTCGGCAGCGTCAGATGTGTATAAGAGACAGTTTTTTTTTTTTTTTTTTTTTTTTT…TC
Conditions: aptamer strand: ATP DNA aptamer (quencher-CACCTGGGGGAGTATTGCGGAGGAAGG + anchor), 100 nM annealed; ATP concentration: 500 uM
Procedure, shortened: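 Switching-strand clusters labelled with Cy3 on a modified Illumina MiSeq flow-cell were annealed to 100 nM quencher-labelled ATP aptamer, imaged in selection buffer, and re-imaged after 15 min with 500 uM ATP at 22 °C. This was done over five cycles with NaOH stripping and re-annealing in between. The fluorescence ratio is summed target-cycle over summed buffer-cycle Cy3 intensity per cluster, averaged per switch-domain sequence, excluding clusters outside 100-1000 RFU.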
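Also: ATP exposure 15 min at 22 °C before imaging.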

| Sequence | switch fluorescence ratio |
| --- | --- |
| AAAGTTTCTC | 1 ± 0.032 |
| CATGTCATTG | 1.01 ± 0.015 |
| CAGGACTGTT | 1.02 ± 0.011 |
| ATGTTATTTA | 1.01 ± 0.025 |
| CTCTGTTTGG | 0.957 ± 0.021 |
| TTCGGTGAAG | 1.01 ± 0.0051 |
| TTAGAGTTTA | 0.975 ± 0.014 |
| AGTGCGGGGC | 1.07 ± 0.013 |
| CTTATGATTT | 0.998 ± 0.033 |
| CAGGTGGGTC | 1.02 ± 0.018 |
| AATTTGGCCC | 1.01 ± 0.031 |
| ACGCGATTTT | 1.35 ± 0.46 |
| TTTATTCGAA | 0.99821 ± 0.00092 |
| AGTATTTATT | 1 ± 0.03 |
| AACGCGCGCC | 1.01 ± 0.05 |
| CCGTTCAGGG | 1.001 ± 0.0045 |
| GGGTGGCGGT | 1.01 ± 0.021 |
| TATTCTAAAT | 1.01 ± 0.016 |
| GCTTCGTGTT | 1.05 ± 0.003 |
| TTTTCAGGGG | 1.03 ± 0.049 |
| GGAGTTTGAC | 1.05 ± 0.068 |
| AGAGCTGCCT | 1.06 ± 0.042 |
| GGTATTAGGG | 1.002 ± 0.0014 |

| Sequence | switch fluorescence ratio |
| --- | --- |
| GGGGACTTGC | 0.9913 ± 0.0045 |
| TGCATTAATT | 0.992 ± 0.019 |
| TTTCACCTTT | 1.02 ± 0.047 |
| AGTTGTTTTT | 0.983 ± 0.025 |
| ATGGATTTAT | 0.992 ± 0.037 |
| TTTAAGGCTC | 0.994 ± 0.032 |
| AGAGAGGCTA | 1 ± 0.015 |
| CCGTGAGAAT | 1.07 ± 0.018 |
| CATTTAAAG | 1.01 ± 0.031 |
| AGGGGGCGTC | 1.022 ± 0.0093 |
| GGAGATGTGG | 0.989 ± 0.011 |
| CGGATGTTGG | 1.02 ± 0.12 |
| TATTAGTGAA | 1.01 ± 0.013 |
| AGGCCGGGTG | 1.35 ± 0.052 |
| GGGTGGGGCT | 1.01 ± 0.031 |
| AGGGTGGTAG | 0.978 ± 0.035 |
| GTATAAACCC | 1.03 ± 0.019 |
| ACGGGGGCGT | 1.05 ± 0.068 |
| AAGAAATCTC | 1.04 ± 0.11 |
| TGACGTGCGC | 1.143 ± 0.0093 |
| ACATGTTATA | 1 ± 0.049 |
| ACCCGTAAGA | 1.22 ± 0.093 |
| TCGTGTGGTT | 0.978 ± 0.035 |

| Sequence | switch fluorescence ratio |
| --- | --- |
| TCCAGTGGGA | 1.11 ± 0.087 |
| TGAATAGGGC | 0.9882 ± 0.0097 |
| CGAGCCTTAA | 1.09 ± 0.035 |
| CCAATTTGGG | 0.964 ± 0.029 |
| ATTTGCGGTG | 1.01 ± 0.019 |
| AGTTGGGGGA | 0.984 ± 0.014 |
| GATGTAGGGG | 0.999 ± 0.024 |
| TGAAGTTGG | 1.01 ± 0.019 |
| GTTGTCGCTT | 0.9811 ± 0.0057 |
| GATTTATGG | 0.994 ± 0.058 |
| GCAAGATTTA | 1.01 ± 0.019 |
| TTGTATAAGA | 1.003 ± 0.0088 |
| AAATTCCGGG | 1.02 ± 0.035 |
| CATTTCAGAG | 1.003 ± 0.0062 |
| ACGGGAGACC | 1.02 ± 0.018 |
| TCCGTGTGGG | 1.04 ± 0.028 |
| CTTAAAATGG | 1.03 ± 0.038 |
| TAAGGCAAGG | 1.03 ± 0.021 |
| TTAAGTGTGG | 0.973 ± 0.031 |
| TAGCTAGACG | 1.01 ± 0.012 |
| ACTACATTGG | 1.033 ± 0.0065 |
| TGGGTTGATA | 0.9958 ± 0.0069 |
| TACATGGGCA | 1.01 ± 0.044 |

| Sequence | switch fluorescence ratio |
| --- | --- |
| AAATGTATGT | 0.988 ± 0.037 |
| TGGCCGGGCG | 1.011 ± 0.0026 |
| TGAGGGTGCT | 1.04 ± 0.037 |
| GAGTGGTCAG | 0.9638 ± 0.0077 |
| GATAGTGGTT | 1.022 ± 0.0078 |
| GGGTAATTAG | 1.03 ± 0.041 |
| CCTGTTCCGA | 1.19 ± 0.028 |
| GTATATCTGT | 1.01 ± 0.052 |
| TTGAGTATGC | 1.07 ± 0.047 |
| GGTGGCTAGC | 1 ± 0.044 |
| TGTGTAAAGT | 1.82 ± 1.2 |
| TTTCCCGAGG | 1.51 ± 0.55 |
| CGGTTTTTAC | 1.08 ± 0.041 |
| CAAGCGTGCG | 0.98 ± 0.012 |
| AGTGACGCTC | 1.08 ± 0.024 |
| GGTGTTAGAT | 0.993 ± 0.035 |
| CGGTTGGTAT | 0.969 ± 0.051 |
| TACTAGAACT | 1.03 ± 0.035 |
| CGGGGAGAC | 1.02 ± 0.062 |
| TCCTGGATGG | 0.98 ± 0.022 |
| TGGGGTATAA | 1.001 ± 0.0042 |
| AGGGGGGCTA | 0.991 ± 0.038 |
| CAGAAGGGGG | 1.11 ± 0.16 |

| Sequence | switch fluorescence ratio |
| --- | --- |
| GGCTGGGGGG | 0.997 ± 0.02 |
| CCGTCAGGTT | 1.012 ± 0.005 |
| CGTAAGAGCT | 1 ± 0.016 |
| CTGTTTATTG | 0.977 ± 0.027 |
| ATCAGGCATT | 1.03 ± 0.011 |
| GGTATGTCGA | 0.954 ± 0.075 |
| AGAGGGGAGG | 0.988 ± 0.0054 |
| AATGAATTGG | 0.9691 ± 0.005 |
| GCGAGCCACG | 1.007 ± 0.0076 |
| TTTGTAGAGT | 1.01 ± 0.034 |
| AGGGCAGTTG | 0.97 ± 0.024 |
| CGGGTAGTAC | 1.19 ± 0.03 |
| ACAAGGTGAT | 1.15 ± 0.024 |
| CGGTGCGACG | 0.958 ± 0.041 |
| GGCATGGTTT | 1.01 ± 0.014 |
| ATCGTCCCGA | 1.05 ± 0.039 |
| GTTGGGAGCC | 0.99 ± 0.01 |
| ACTTTACAAA | 1.28 ± 0.036 |
| GCTGGGACAC | 1.04 ± 0.012 |
| GAGTGAGTAT | 0.9731 ± 0.0071 |
| TGTTATGTTT | 0.99 ± 0.032 |
| GGCCGAGGAG | 0.998 ± 0.012 |
| TCGGAATTGC | 1.56 ± 0.33 |

| Sequence | switch fluorescence ratio |
| --- | --- |
| TAGTGCAAGA | 1.0334 ± 0.00052 |
| ACCTTAGGCC | 1.07 ± 0.015 |
| GCGGTAGCAT | 1.02 ± 0.012 |
| TATAGTTCGG | 1.01 ± 0.013 |
| GTTGGCGGGA | 1.02 ± 0.042 |
| TGGGGTGGCG | 1.01 ± 0.067 |
| AGGCTTGCGC | 1.01 ± 0.037 |
| CAGCTTTTCA | 1.024 ± 0.006 |
| CTGGTAAGGA | 1.017 ± 0.0031 |
| GGCCGAGTTA | 1.013 ± 0.0036 |
| CGTTTGTCGG | 1.01 ± 0.059 |
| GGTGGTGGCG | 1.01 ± 0.059 |
| TGGGAGTTGG | 1.03 ± 0.012 |
| AATTTGGACT | 1.03 ± 0.027 |
| CTGTATGTCA | 0.99 ± 0.0098 |
| TACGGTTTAG | 1 ± 0.048 |
| GGGTACGGAA | 1.106 ± 0.01 |
| ACGGAATCCT | 1.19 ± 0.018 |
| TCTGATTTGT | 1.01 ± 0.013 |
| GCATGAAACT | 1.03 ± 0.034 |
| TTTTTAGCCA | 1.05 ± 0.024 |
| TTGCCGCACG | 1.15 ± 0.024 |
| GCAGTGGGTA | 0.978 ± 0.016 |

| Sequence | switch fluorescence ratio |
| --- | --- |
| TGAATGATCG | 1.07 ± 0.032 |
| CCGGATGGGT | 1.012 ± 0.0037 |
| AGGTTGTTTT | 0.977 ± 0.028 |
| TTTTTAGCGA | 1.09 ± 0.058 |
| TTTTTCTGGA | 0.993 ± 0.021 |
| AATGTCGAAA | 0.998 ± 0.018 |
| AAGAGGGGGG | 0.999 ± 0.053 |
| GGGGATGTAG | 0.979 ± 0.026 |
| GGAGGAAGG | 1.02 ± 0.019 |
| CTGTAAGGGG | 0.977 ± 0.022 |
| TTCACTTAGC | 1.075 ± 0.0076 |
| GGGTTAATTG | 0.983 ± 0.017 |
| AGTACGGGGA | 1.04 ± 0.053 |
| GTTGTCGTAT | 0.974 ± 0.051 |
| CGAGGGTAGG | 1.04 ± 0.025 |
| GCGGAAAGAA | 0.962 ± 0.02 |
| GGGTTAGAAA | 1 ± 0.043 |
| TTGGTTTCGA | 0.98 ± 0.013 |
| TTACATTTTT | 1.05 ± 0.06 |
